Source: the RNAGym collection of RNA variant scans (doi:10.1073/pnas.2313332121)
This sample holds only a part of the variants without activity.

B1: TPR 5TU (parent)
chain: GGAUCUUCUCGAUCUAACAAAAAAGACAAAUCUGCCACAAAGCUUGAGAGCAUCUUCGGAUGCAGAGGCGGCAGCCUUCGGUGGCGCGAUAGCGCCAACGUUCUCAACUAUGACACGCAAAACGCGUGCUCCGUUGAAUGGAGUUUAUCAUG

Variants of: B1
Assay: polymerase ribozyme fitness, log enrichment relative to wild type (log ratio); higher = more active; in vitro selection for triplet polymerase activity
How it was run: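 Fitness compares each genotype's enrichment to that of the wild type on a logarithmic scale, averaging replicates with inverse-variance weights. The logarithm is base 2. Enrichment came from Illumina sequencing of input and output libraries after one triplicate round of in vitro selection, which included frozen incubation at −7 °C, of PCR-built, transcribed mutant libraries of each subunit of a heterodimeric triplet polymerase ribozyme. Only genotypes with ≥10 input reads and ≥1 read per output were kept.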

Variant	polymerase ribozyme fitness (log ratio)
U55C U56A A98U U145A	-1.11
C5G A17G	-0.0409
G92U C93U A138C	≤ -4.2
U9C A28U A30C U61A G88A A91U G92A A119U	≤ -4.2
A39U C95U C96A G124A	-3.2
C51U C87A	≤ -4.2
A16U U31A C38G A41C G62C A120U A142G A147U	≤ -4.2
A40C C54U U56A G126U	-0.0276
C51U U56A A73U G86A	-4.02
A26G U77A C87U A89C	≤ -4.2
U77G G84U	≤ -4.2
A66G G92C C95A C103U C108G U151C	≤ -4.2
G94A G133C	-2.71
C51U G88U U90C G94A C95U A147G	≤ -4.2
C87U A115U G140U	-4.19
U56G G58C C99G	-2.63
C5G U7C A16C C27U C32G A49C U53G C125A A137U G143C	≤ -4.2
A12U A28U U55G A66C G74C G80C C85A C87U C96U	≤ -4.2
C54G G83C A97U A98U	-2.8
A12U A91G	-2.26
G83U G94U C95A	-1.62
A29G C87A A110C G141U	≤ -4.2
C54U G88A A89U C95A C99U U146G U151A	≤ -4.2
C54A C85A C105A	≤ -4.2

Variant	polymerase ribozyme fitness (log ratio)
A16U C96U	-2.07
G25U U55A C72G C93G G140A	≤ -4.2
A40G C57A C72U C87A	≤ -4.2
C32G C96U C116G G141U	≤ -4.2
C5A A40C G50U C57U G81C C95A U104G C116G G133A	≤ -4.2
U109G G140U	-3.76
C85U C114G G128A	≤ -4.2
A24U A26U G48C G83A A115U C116U	≤ -4.2
C96A G152U	-2.51
A12C C129G	-3.9
C35U G92A A122G	-3.92
A22C G84A G136C C149A	≤ -4.2
A17U A60U	-0.153
A37U A98G	-1.34
A47G A52G G58A A60G G62C U78G G88C	≤ -4.2
C76U G84A A119U U145G	-2.68
U104G U135C G143C	-3.79
C85A G94A G128C	-3.21
U109G C116A	-2.26
C87U C123U C149G	-2.65
G42C U55A C85U	≤ -4.2
C43G C57A G59C C72A C79A A138G U145A	≤ -4.2
A12U C35G G46A C57G A60C G92U C108G G143A A147G	≤ -4.2
A41C G50A G86U A137C C149A	≤ -4.2

Variant	polymerase ribozyme fitness (log ratio)
U56G C63A A120G	-0.244
A40G C63G C85U U145A	-2.16
C14G C87G A107G	≤ -4.2
C54U C63A C149U	-1.67
A22U A52C G65A C132G G140U	-3.17
G25A G34C U44A G84A G88A	≤ -4.2
G74A A89C G94U U109G G117U	≤ -4.2
U4C C5U A20C C87A A98C G133U U148G	≤ -4.2
A23U C125A	-3.51
A16C A49U C85U U146C	-2.7
C10U A26U C35U C54U A60C C95A C99U C103G A142U	≤ -4.2
G70A G88C U144C	≤ -4.2
A20U A97U	-2.04
G68A C75U C85G G136U U148A	≤ -4.2
A22G A24U C63G	2.39
U7G A21C C32A A49C U53C C69U A142C	≤ -4.2
C54U U82A G83A A98G	-1.89
A29U G86A A97G A142U G143A	≤ -4.2
U44G A52C G92U G141A	≤ -4.2
G34A A91G	-3.57
G59A C87U U101G G136C	-2.91
A40C G92A U109C G141U	≤ -4.2
C5U C8G U9G U61G U77A G84A U146C	≤ -4.2
G83A U146G	-1.33

Variant	polymerase ribozyme fitness (log ratio)
A73G C93A U146C	-2.15
G83A A98U	-0.299
U4G U13A C57A A106C G136A	-1.91
C14U C43U C72A G84A C93G C95G A142G U144A	≤ -4.2
C14U A17U A24G A41C C51U U56A C93A A115C	≤ -4.2
C10A C96U G143A	≤ -4.2
C10U G50C A64C G65C C93A A142U	≤ -4.2
U7A A29U C35U A66C U82G A113U	-3.86
C72A G81U G83C C93U	≤ -4.2
C36U A40G C43G U55A A91C G126A G141U	≤ -4.2
A23U U77C C87U	≤ -4.2
A29G A30U C85A A107U C118G	≤ -4.2
A52G G81A	-0.481
C69G	-1.51
G42C G88U C95A	≤ -4.2
A21U G34U C51U G86A A89U U145G	≤ -4.2
C32G G92A U111G	-4.13
A20U U55G C93G G94C A142G	≤ -4.2
U4A A29G U61A G94U G126U G133U U151G	≤ -4.2
A39C C57A G86A U130C	-2.93
A19U U56A A60G U104G G152A	-2.82
C5U C51A C54G G59C G84A C116G	-3.05
A23U A30G A41C A47G U53G U56A C75A C93U C108G G133C G136A	≤ -4.2
A12U C105G	-2.43

Variant	polymerase ribozyme fitness (log ratio)
A26G G48A	≤ -4.2
U13G U56A G71A U135C	≤ -4.2
A30U A66U C85U A106C	≤ -4.2
C96A C105G	-1.4
A41C U56A C85A G117A G140A	≤ -4.2
U56A A150C	-3.35
U55A C96A G136C	-3.78
C5G C14G C96A	-2.31
C5U C87U G94C	-2.15
C14G U53A C85G U90A A91U C99A C118A A120U	≤ -4.2
A16C G94A	-1.78
A17G A40U U55A U56A C103A A119G U134A	≤ -4.2
C14G A91U C93G C125A	≤ -4.2
C5G A16G C35U C63A C85U	-1.82
A16U A150G	-2.95
G50U	0.257
C14G A22G C54U G70U C95U C96A C114U A137C	≤ -4.2
C35U G81U U82G G88U G94U U139C C149A	≤ -4.2
C35U G124U	-1.25
C51A U55G A60G C93U	-2.7
U82G G128U	-3.35
G50C G84A U104C A106C	≤ -4.2
G46A C69A	-3.61
A20U G86A C87G A91U C118A	≤ -4.2

Variant	polymerase ribozyme fitness (log ratio)
C85U U90C	-3.89
A98U U148A	-3.03
G46C G50U G68A C76A C85U U130G	≤ -4.2
C38A C96G	-0.458
U7C A17G A119U	-3.03
C5A C103A	-1.35
U13G C18G U45A G59U U104G U134C G140U U144A	≤ -4.2
G25C A39C C76A C79U C87A A110U C114U	≤ -4.2
C10U A29G G59A G81A A97G	≤ -4.2
A26U C27U U33A G34A U56A C57U C76A C85G G88A U127C	≤ -4.2
G62A C69U G92C	-3.74
A21C G68C A142G	-4.13
U55A G92U U146C	-0.69
A17U A24U C36A G59A U77G G83A A98U C105U C116G	≤ -4.2
U77G U78C C85U	≤ -4.2
U31C U56A G58C A98U C149U	0.414
G88A C105A A147C U151G	≤ -4.2
C38A C85G G86U	≤ -4.2
U77C G84U A106C	≤ -4.2
C87U A91U A98G A138G G152A	≤ -4.2
C14A A20C C96U	-1.32
C69G C72U	-2.71
A107U U145A	-2.78
U56A A91G U148C	-3.72

Variant	polymerase ribozyme fitness (log ratio)
C79U C87U A113G	-4.11
U6C A49C U55A U104C U146C	≤ -4.2
G84A A89G G100C A115G C125U	≤ -4.2
A39C C75U G83A	≤ -4.2
U56A U148G	-3.6
U7A A73G C87G C131A	≤ -4.2
C10U G11A A19U U55A C75G G83U	≤ -4.2
G58C	0.0074
U55G C87U	-1.42
U102C G136A	-0.705
A22U G88U C116A A119U	-4.1
A41C A137C	-3.61
C75G U77A A91G A106U U134G	≤ -4.2
A41C U55A A97G	-0.161
U55A C75U	0.238
C85G G141A C149G	≤ -4.2
C10G G68A C79G	≤ -4.2
U9G C18U U45G G48A C76U	≤ -4.2
A22C C69G G81C	-1.85
A17G G58A	1.26
U15A G94A	-0.258
C43U G86U	-4.15
A17G A37C A91G C99A A107G U139G G143U U148C	≤ -4.2
